Assay results taken from publication PMC3965691.

Biological target: GST-Pin1 (human Pin1, full length, fused to GST) (human) (UniProt Q13526)
Test: pull-down

Sequence of GST-Pin1 (human Pin1, full length, fused to GST) (human) (Q13526 whole entry, the tested form may be a part): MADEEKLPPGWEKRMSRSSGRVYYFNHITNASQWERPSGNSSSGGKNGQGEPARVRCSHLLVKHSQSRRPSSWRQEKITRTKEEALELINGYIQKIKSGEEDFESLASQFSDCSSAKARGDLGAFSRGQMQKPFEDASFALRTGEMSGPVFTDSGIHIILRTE

Row | K0.5 [µM] | Substance
1 | 0.3 | His6-DI-2 (Drosophila phosphatase inhibitor-2) (natural protein)
2 | 0.3 | His6-XI-2 (Xenopus phosphatase inhibitor-2) (natural protein)
